Source: US20210045419A1 (UNIVERSITY OF MANITOBA, published 2021)

Target: T1, bitter taste receptor T2R4 (UniProt Q9NYW5 1-299, limits assumed)
T1 sequence (looked up): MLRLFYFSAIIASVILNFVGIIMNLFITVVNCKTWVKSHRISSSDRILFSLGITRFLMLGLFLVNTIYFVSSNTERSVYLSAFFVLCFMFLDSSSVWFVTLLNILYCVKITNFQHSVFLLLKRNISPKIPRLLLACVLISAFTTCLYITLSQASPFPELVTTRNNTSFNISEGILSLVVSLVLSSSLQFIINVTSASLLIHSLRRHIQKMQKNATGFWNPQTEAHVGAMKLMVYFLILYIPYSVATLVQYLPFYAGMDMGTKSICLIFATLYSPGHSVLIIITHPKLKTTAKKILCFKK
Test: cell-based or functional assay

Binder: AGDDAPRAVF [AGDDAPRAVF (SEQ ID No:5)]
- IC50, peptide and quinine (1 mM) competition calcium mobilization assay on T2R4-expressing HEK293T cells: 85 µM
